Measurements from paper PMC5669812 (Protein expression and purification, 2017).
Read-outs that look alike come from different tables or passages of the source.

Experiments:
native gel or EMSA = target: the molecule itself; assay: native gel or EMSA
MTSL-labeled GroEL^A138C [1] = target: T1, MTSL-labeled GroEL^A138C (E. coli, UniProt P0A6F5 2-548, C458A | C519A, MTSL nitroxide spin label on cysteine 138); assay: negative-stain electron microscopy
MTSL-labeled GroEL^A138C [2] = target: T1, MTSL-labeled GroEL^A138C; assay: negative-stain electron microscopy; remark: listed apart in the source

stoichiometry N (MTSL-labeled GroEL^A138C [1])	stoichiometry N (MTSL-labeled GroEL^A138C [2])	Binder	binding result (native gel or EMSA)
		MTS-labeled GroEL^R268C (natural protein, E. coli, diamagnetic MTS label on cysteine 268) AAKDVKFGNDARVKMLRGVNVLADAVKVTLGPKGRNVVLDKSFGAPTITKDGVSVAREIELEDKFENMGAQMVKEVASKANDAAGDGTTTATVLAQAIITEGLKAVAAGMNPMDLKRGIDKAVTAAVEELKALSVPASDSKAIAQVGTISANSDETVGKLIAEAMDKVGKEGVITVEDGTGLQDELDVVEGMQFDRGYLSPYFINKPETGAVELESPFILLADKKISNIREMLPVLEAVAKAGKPLLIIAEDVEGEALATLVVNTMCGIVKVAAVKAPGFGDRRKAMLQDIATLTGGTVISEEIGMELEKATLEDLGQAKRVVINKDTTTIIDGVGEEAAIQGRVAQIRQQIEEATSDYDREKLQERVAKLAGGVAVIKVGAATEVEMKEKKARVEDALHATRAAVEEGVVAGGGVALIRVASKLADLRGQNEDQNVGIKVALRAMEAPLRQIVLNAGEEPSVVANTVKGGDGNYGYNAATEEYGNMIDMGILDPTKVTRSALQYAASVAGLMITTEAMVTDLPKNDAADLGAAGGMGGMGGMGGMM	binds
2 GroES molecules per GroEL-14mer	1 GroES molecules per GroEL-14mer	GroES (natural protein) MNIRPLHDRVIVKRKEVETKSAGGIVLTGSAAAKSTRGEVLAVGNGRILENGEVKPLDVKVGDIVIFNDGYGVKSEKIDNEEVLIMSESDILAIVEA	
